Data as given in patent US20210388087A1 (Chugai, published 2021).
Numbering of substitutions follows the chain as printed. Names may count otherwise.

T1: Human CD3eg linker (human)
T1 construct: single-chain construct; also called recombinant human CD3
T1 chain: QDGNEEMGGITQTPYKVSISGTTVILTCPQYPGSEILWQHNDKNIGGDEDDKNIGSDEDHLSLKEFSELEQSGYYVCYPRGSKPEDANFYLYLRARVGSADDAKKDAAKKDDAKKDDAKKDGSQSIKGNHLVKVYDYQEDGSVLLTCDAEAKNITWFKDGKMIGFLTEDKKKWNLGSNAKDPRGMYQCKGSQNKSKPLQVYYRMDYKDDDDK

B1: dBBDu183H V100cF/dBBDu072L (antibody, name in Kabat numbering, V domains shown)
VH: QVQLVESGGGLVQPGRSLRLSCAASGFTFSNAWMHWVRQAPGKGLEWVAQIKDKGNAYAAYYAPSVKGRFTISRDDSKNSIYLQMNSLKTEDTAVYYCHYVHYASASTFLPAFGVDAWGQGTTVTVSS
VL: DIVMTQSPLSLPVTPGEPASISCQASQELVHMNRNTYLHWYQQKPGQAPRLLIYKVSNRFPGVPDRFSGSGSGTDFTLKISRVEAEDVGVYYCAQGTSVPFTFGQGTKLEIK
B2: dBBDu183H V100iQ/dBBDu072L (antibody, name in Kabat numbering, V domains shown)
VH: B1 VH with F109V, V115Q
VL: B1 VL
B3: dBBDu183H Y97H/dBBDu072L (antibody, name in Kabat numbering, V domains shown)
VH: B1 VH with Y103H, F109V
VL: B1 VL
B4: dBBDu183H V100cW/dBBDu072L (antibody, name in Kabat numbering, V domains shown)
VH: B1 VH with F109W
VL: B1 VL
B5: dBBDu183H Y94V/dBBDu072L (antibody, name in Kabat numbering, V domains shown)
VH: B1 VH with Y100V, F109V
VL: B1 VL
B6: dBBDu183H Y97G/dBBDu072L (antibody, name in Kabat numbering, V domains shown)
VH: B1 VH with Y103G, F109V
VL: B1 VL
B7: dBBDu183H Y94W/dBBDu072L (antibody, name in Kabat numbering, V domains shown)
VH: B1 VH with Y100W, F109V
VL: B1 VL
B8: dBBDu183H Y94D/dBBDu072L (antibody, name in Kabat numbering, V domains shown)
VH: B1 VH with Y100D, F109V
VL: B1 VL
B9: dBBDu183H V100cK/dBBDu072L (antibody, name in Kabat numbering, V domains shown)
VH: B1 VH with F109K
VL: B1 VL
B10: dBBDu183H Y94H/dBBDu072L (antibody, name in Kabat numbering, V domains shown)
VH: B1 VH with Y100H, F109V
VL: B1 VL
B11: dBBDu183H V100cQ/dBBDu072L (antibody, name in Kabat numbering, V domains shown)
VH: B1 VH with F109Q
VL: B1 VL
B12: dBBDu183H V100cS/dBBDu072L (antibody, name in Kabat numbering, V domains shown)
VH: B1 VH with F109S
VL: B1 VL
B13: dBBDu183H V100iE/dBBDu072L (antibody, name in Kabat numbering, V domains shown)
VH: B1 VH with F109V, V115E
VL: B1 VL
B14: dBBDu183H Y94F/dBBDu072L (antibody, name in Kabat numbering, V domains shown)
VH: B1 VH with Y100F, F109V
VL: B1 VL
B15: dBBDu183H Y94E/dBBDu072L (antibody, name in Kabat numbering, V domains shown)
VH: B1 VH with Y100E, F109V
VL: B1 VL
B16: dBBDu183H V100iH/dBBDu072L (antibody, name in Kabat numbering, V domains shown)
VH: B1 VH with F109V, V115H
VL: B1 VL
B17: dBBDu183H Y97Q/dBBDu072L (antibody, name in Kabat numbering, V domains shown)
VH: B1 VH with Y103Q, F109V
VL: B1 VL
B18: dBBDu183H Y94T/dBBDu072L (antibody, name in Kabat numbering, V domains shown)
VH: B1 VH with Y100T, F109V
VL: B1 VL
B19: dBBDu183H V100iT/dBBDu072L (antibody, name in Kabat numbering, V domains shown)
VH: B1 VH with F109V, V115T
VL: B1 VL
B20: dBBDu183H V100cT/dBBDu072L (antibody, name in Kabat numbering, V domains shown)
VH: B1 VH with F109T
VL: B1 VL
B21: dBBDu183H Y94R/dBBDu072L (antibody, name in Kabat numbering, V domains shown)
VH: B1 VH with Y100R, F109V
VL: B1 VL
B22: dBBDu183H V100iD/dBBDu072L (antibody, name in Kabat numbering, V domains shown)
VH: B1 VH with F109V, V115D
VL: B1 VL
B23: dBBDu183H V100iW/dBBDu072L (antibody, name in Kabat numbering, V domains shown)
VH: B1 VH with F109V, V115W
VL: B1 VL
B24: dBBDu183H Y94G/dBBDu072L (antibody, name in Kabat numbering, V domains shown)
VH: B1 VH with Y100G, F109V
VL: B1 VL
B25: dBBDu183H Y94K/dBBDu072L (antibody, name in Kabat numbering, V domains shown)
VH: B1 VH with Y100K, F109V
VL: B1 VL
B26: dBBDu183H Y94Q/dBBDu072L (antibody, name in Kabat numbering, V domains shown)
VH: B1 VH with Y100Q, F109V
VL: B1 VL
B27: dBBDu183H Y94S/dBBDu072L (antibody, name in Kabat numbering, V domains shown)
VH: B1 VH with Y100S, F109V
VL: B1 VL
B28: dBBDu183H V100iN/dBBDu072L (antibody, name in Kabat numbering, V domains shown)
VH: B1 VH with F109V, V115N
VL: B1 VL
B29: dBBDu183H V100cG/dBBDu072L (antibody, name in Kabat numbering, V domains shown)
VH: B1 VH with F109G
VL: B1 VL
B30: dBBDu183H Y97E/dBBDu072L (antibody, name in Kabat numbering, V domains shown)
VH: B1 VH with Y103E, F109V
VL: B1 VL
B31: dBBDu183H V100iG/dBBDu072L (antibody, name in Kabat numbering, V domains shown)
VH: B1 VH with F109V, V115G
VL: B1 VL
B32: dBBDu183H V100cH/dBBDu072L (antibody, name in Kabat numbering, V domains shown)
VH: B1 VH with F109H
VL: B1 VL
B33: dBBDu183H V100iK/dBBDu072L (antibody, name in Kabat numbering, V domains shown)
VH: B1 VH with F109V, V115K
VL: B1 VL
B34: dBBDu183H V100cR/dBBDu072L (antibody, name in Kabat numbering, V domains shown)
VH: B1 VH with F109R
VL: B1 VL
B35: dBBDu183H Y97N/dBBDu072L (antibody, name in Kabat numbering, V domains shown)
VH: B1 VH with Y103N, F109V
VL: B1 VL
B36: dBBDu183H V100iR/dBBDu072L (antibody, name in Kabat numbering, V domains shown)
VH: B1 VH with F109V, V115R
VL: B1 VL
B37: dBBDu183H Y97K/dBBDu072L (antibody, name in Kabat numbering, V domains shown)
VH: B1 VH with Y103K, F109V
VL: B1 VL
B38: dBBDu183H Y94N/dBBDu072L (antibody, name in Kabat numbering, V domains shown)
VH: B1 VH with Y100N, F109V
VL: B1 VL
B39: dBBDu183H V100cY/dBBDu072L (antibody, name in Kabat numbering, V domains shown)
VH: B1 VH with F109Y
VL: B1 VL
B40: dBBDu183H V100cN/dBBDu072L (antibody, name in Kabat numbering, V domains shown)
VH: B1 VH with F109N
VL: B1 VL
B41: dBBDu183H V100iY/dBBDu072L (antibody, name in Kabat numbering, V domains shown)
VH: B1 VH with F109V, V115Y
VL: B1 VL
B42: dBBDu183H V100iF/dBBDu072L (antibody, name in Kabat numbering, V domains shown)
VH: B1 VH with F109V, V115F
VL: B1 VL
B43: dBBDu183H V100iS/dBBDu072L (antibody, name in Kabat numbering, V domains shown)
VH: B1 VH with F109V, V115S
VL: B1 VL
B44: dBBDu183H Y97D/dBBDu072L (antibody, name in Kabat numbering, V domains shown)
VH: B1 VH with Y103D, F109V
VL: B1 VL
B45: dBBDu183H Y97F/dBBDu072L (antibody, name in Kabat numbering, V domains shown)
VH: B1 VH with Y103F, F109V
VL: B1 VL

Target: T1, Human CD3eg linker
Experiment: SPR, vs unmutated H183/L072

| Binder | fold change of affinity |
| --- | --- |
| B1 | 1.8 fold |
| B2 | 3.6 fold |
| B3 | 0 fold |
| B4 | 1.5 fold |
| B5 | 2.6 fold |
| B6 | 0 fold |
| B7 | 0.4 fold |
| B8 | 0 fold |
| B9 | 1.2 fold |
| B10 | 0.5 fold |
| B11 | 1.4 fold |
| B12 | 1.1 fold |
| B13 | 1.4 fold |
| B14 | 0.4 fold |
| B15 | 0 fold |
| B16 | 2.2 fold |
| B17 | 0 fold |
| B18 | 0.3 fold |
| B19 | 1 fold |
| B20 | 1 fold |
| B21 | 0.3 fold |
| B22 | 2.4 fold |
| B23 | 4.9 fold |

| Binder | fold change of affinity |
| --- | --- |
| B24 | 1.1 fold |
| B25 | 0 fold |
| B26 | 0.4 fold |
| B27 | 0 fold |
| B28 | 5 fold |
| B29 | 1.5 fold |
| B30 | 0 fold |
| B31 | 1.8 fold |
| B32 | 1.2 fold |
| B33 | 2.4 fold |
| B34 | 1.5 fold |
| B35 | 0 fold |
| B36 | 4 fold |
| B37 | 0 fold |
| B38 | 0 fold |
| B39 | 1.3 fold |
| B40 | 1 fold |
| B41 | 3 fold |
| B42 | 3.2 fold |
| B43 | 1.9 fold |
| B44 | 0 fold |
| B45 | 0 fold |
